Results reported in patent US20250262210A1 (TRUSTEES OF COLUMBIA UNIVERSITY IN THE CITY OF NEW YORK, published 2025).
Numbering of substitutions follows the chain as printed.

B1: UMPS (other, human, UniProt P11172 2-480, looked up)
chain: AVARAALGPLVTGLYDVQAFKFGDFVLKSGLSSPIYIDLRGIVSRPRLLSQVADILFQTAQNAGISFDTVCGVPYTALPLATVICSTNQIPMLIRRKETKDYGTKRLVEGTINPGETCLIIEDVVTSGSSVLETVEVLQKEGLKVTDAIVLLDREQGGKDKLQAHGIRLHSVCTLSKMLEILEQQKKVDAETVGRVKRFIQENVFVAANHNGSPLSIKEAPKELSFGARAELPRIHPVASKLLRLMQKKETNLCLSADVSLARELLQLADALGPSICMLKTHVDILNDFTLDVMKELITLAKCHEFLIFEDRKFADIGNTVKKQYEGGIFKIASWADLVNAHVVPGSGVVKGLQEVGLPLHRGCLLIAEMSSTGSLATGDYTRAAVRMAEEHSEFVVGFISGSRVSMKPEFLHLTPGVQLEAGGDNLGQQYNSPQEVIGKRGSDIIIVGRGIISAADRLEAAEMYRKAAWEAYLSRLGV
B2: YME1L1 (other, human, UniProt Q96TA2 1-773, looked up)
chain: MFSLSSTVQPQVTVPLSHLINAFHTPKNTSVSLSGVSVSQNQHRDVVPEHEAPSSECMFSDFLTKLNIVSIGKGKIFEGYRSMFMEPAKRMKKSLDTTDNWHIRPEPFSLSIPPSLNLRDLGLSELKIGQIDQLVENLLPGFCKGKNISSHWHTSHVSAQSFFENKYGNLDIFSTLRSSCLYRHHSRALQSICSDLQYWPVFIQSRGFKTLKSRTRRLQSTSERLAETQNIAPSFVKGFLLRDRGSDVESLDKLMKTKNIPEAHQDAFKTGFAEGFLKAQALTQKTNDSLRRTRLILFVLLLFGIYGLLKNPFLSVRFRTTTGLDSAVDPVQMKNVTFEHVKGVEEAKQELQEVVEFLKNPQKFTILGGKLPKGILLVGPPGTGKTLLARAVAGEADVPFYYASGSEFDEMFVGVGASRIRNLFREAKANAPCVIFIDELDSVGGKRIESPMHPYSRQTINQLLAEMDGFKPNEGVIIIGATNFPEALDNALIRPGRFDMQVTVPRPDVKGRTEILKWYLNKIKFDQSVDPEIIARGTVGFSGAELENLVNQAALKAAVDGKEMVTMKELEFSKDKILMGPERRSVEIDNKNKTITAYHESGHAIIAYYTKDAMPINKATIMPRGPTLGHVSLLPENDRWNETRAQLLAQMDVSMGGRVAEELIFGTDHITTGASSDFDNATKIAKRMVTKFGMSEKLGVMTYSDTGKLSPETQSAIEQEIRILLRDSYERAKHILKTHAKEHKNLAEALLTYETLDAKEIQIVLEGKKLEVR
B3: VPS16 (other, human, UniProt Q9H269 1-839, looked up)
chain: MDCYTANWNPLGDSAFYRKYELYSMDWDLKEELRDCLVAAAPYGGPIALLRNPWRKEKAASVRPVLDIYSASGMPLASLLWKSGPVVSLGWSAEEELLCVQEDGAVLVYGLHGDFRRHFSMGNEVLQNRVLDARIFHTEFGSGVAILTGAHRFTLSANVGDLKLRRMPEVPGLQSAPSCWTVLCQDRVAHILLAVGPDLYLLDHAACSAVTPPGLAPGVSSFLQMAVSFTYRHLALFTDTGYIWMGTASLKEKLCEFNCNIRAPPKQMVWCSRPRSKERAVVVAWERRLMVVGDAPESIQFVLDEDSYLVPELDGVRIFSRSTHEFLHEVPAASEEIFKIASMAPGALLLEAQKEYEKESQKADEYLREIQELGQLTQAVQQCIEAAGHEHQPDMQKSLLRAASFGKCFLDRFPPDSFVHMCQDLRVLNAVRDYHIGIPLTYSQYKQLTIQVLLDRLVLRRLYPLAIQICEYLRLPEVQGVSRILAHWACYKVQQKDVSDEDVARAINQKLGDTPGVSYSDIAARAYGCGRTELAIKLLEYEPRSGEQVPLLLKMKRSKLALSKAIESGDTDLVFTVLLHLKNELNRGDFFMTLRNQPMALSLYRQFCKHQELETLKDLYNQDDNHQELGSFHIRASYAAEERIEGRVAALQTAADAFYKAKNEFAAKATEDQMRLLRLQRRLEDELGGQFLDLSLHDTVTTLILGGHNKRAEQLARDFRIPDKRLWWLKLTALADLEDWEELEKFSKSKKSPIGYLPFVEICMKQHNKYEAKKYASRVGPEQKVKALLLVGDVAQAADVAIEHRNEAELSLVLSHCTGATDGATADKIQRARAQAQKK
B4: UTP6 (other, human, UniProt Q9NYH9 1-597, looked up)
chain: MAEIIQERIEDRLPELEQLERIGLFSHAEIKAIIKKASDLEYKIQRRTLFKEDFINYVQYEINLLELIQRRRTRIGYSFKKDEIENSIVHRVQGVFQRASAKWKDDVQLWLSYVAFCKKWATKTRLSKVFSAMLAIHSNKPALWIMAAKWEMEDRLSSESARQLFLRALRFHPECPKLYKEYFRMELMHAEKLRKEKEEFEKASMDVENPDYSEEILKGELAWIIYKNSVSIIKGAEFHVSLLSIAQLFDFAKDLQKEIYDDLQALHTDDPLTWDYVARRELEIESQTEEQPTTKQAKAVEVGRKEERCCAVYEEAVKTLPTEAMWKCYITFCLERFTKKSNSGFLRGKRLERTMTVFRKAHELKLLSECQYKQLSVSLLCYNFLREALEVAVAGTELFRDSGTMWQLKLQVLIESKSPDIAMLFEEAFVHLKPQVCLPLWISWAEWSEGAKSQEDTEAVFKKALLAVIGADSVTLKNKYLDWAYRSGGYKKARAVFKSLQESRPFSVDFFRKMIQFEKEQESCNMANIREYYERALREFGSADSDLWMDYMKEELNHPLGRPENCGQIYWRAMKMLQGESAEAFVAKHAMHQTGHL
B5: ZC3HC1 (other, human, UniProt Q86WB0 2-502, looked up)
chain: AAPCEGQAFAVGVEKNWGAVVRSPEGTPQKIRQLIDEGIAPEEGGVDAKDTSATSQSVNGSPQAEQPSLESTSKEAFFSRVETFSSLKWAGKPFELSPLVCAKYGWVTVECDMLKCSSCQAFLCASLQPAFDFDRYKQRCAELKKALCTAHEKFCFWPDSPSPDRFGMLPLDEPAILVSEFLDRFQSLCHLDLQLPSLRPEDLKTMCLTEDKISLLLHLLEDELDHRTDERKTTIKLGSDIQVHVTACILSVCGWACSSSLESMQLSLITCSQCMRKVGLWGFQQIESSMTDLDASFGLTSSPIPGLEGRPERLPLVPESPRRMMTRSQDATFSPGSEQAEKSPGPIVSRTRSWDSSSPVDRPEPEAASPTTRTRPVTRSMGTGDTPGLEVPSSPLRKAKRARLCSSSSSDTSSRSFFDPTSQHRDWCPWVNITLGKESRENGGTEPDASAPAEPGWKAVLTILLAHKQSSQPAETDSMSLSEKSRKVFRIFRQWESLCSC
B6: VPS51 (other, human, UniProt Q9UID3 2-782, looked up)
chain: AAAAAAGPSPGSGPGDSPEGPEGEAPERRRKAHGMLKLYYGLSEGEAAGRPAGPDPLDPTDLNGAHFDPEVYLDKLRRECPLAQLMDSETDMVRQIRALDSDMQTLVYENYNKFISATDTIRKMKNDFRKMEDEMDRLATNMAVITDFSARISATLQDRHERITKLAGVHALLRKLQFLFELPSRLTKCVELGAYGQAVRYQGRAQAVLQQYQHLPSFRAIQDDCQVITARLAQQLRQRFREGGSGAPEQAECVELLLALGEPAEELCEEFLAHARGRLEKELRNLEAELGPSPPAPDVLEFTDHGGSGFVGGLCQVAAAYQELFAAQGPAGAEKLAAFARQLGSRYFALVERRLAQEQGGGDNSLLVRALDRFHRRLRAPGALLAAAGLADAATEIVERVARERLGHHLQGLRAAFLGCLTDVRQALAAPRVAGKEGPGLAELLANVASSILSHIKASLAAVHLFTAKEVSFSNKPYFRGEFCSQGVREGLIVGFVHSMCQTAQSFCDSPGEKGGATPPALLLLLSRLCLDYETATISYILTLTDEQFLVQDQFPVTPVSTLCAEARETARRLLTHYVKVQGLVISQMLRKSVETRDWLSTLEPRNVRAVMKRVVEDTTAIDVQVGLLYEEGVRKAQSSDSSKRTFSVYSSSRQQGRYAPSYTPSAPMDTNLLSNIQKLFSERIDVFSPVEFNKVSVLTGIIKISLKTLLECVRLRTFGRFGLQQVQVDCHFLQLYLWRFVADEELVHLLLDEVVASAALRCPDPVPMEPSVVEVICERG

Molecular target: T1, LZTR1 R810W-FLAG (human, UniProt Q8N653 1-840)
T1 construct: Stably expressed in U87 cells by lentivirus; also called LZTR1-FLAG-R810W; LZTR1 RW; not shown: FLAG tag
T1 sequence (looked up): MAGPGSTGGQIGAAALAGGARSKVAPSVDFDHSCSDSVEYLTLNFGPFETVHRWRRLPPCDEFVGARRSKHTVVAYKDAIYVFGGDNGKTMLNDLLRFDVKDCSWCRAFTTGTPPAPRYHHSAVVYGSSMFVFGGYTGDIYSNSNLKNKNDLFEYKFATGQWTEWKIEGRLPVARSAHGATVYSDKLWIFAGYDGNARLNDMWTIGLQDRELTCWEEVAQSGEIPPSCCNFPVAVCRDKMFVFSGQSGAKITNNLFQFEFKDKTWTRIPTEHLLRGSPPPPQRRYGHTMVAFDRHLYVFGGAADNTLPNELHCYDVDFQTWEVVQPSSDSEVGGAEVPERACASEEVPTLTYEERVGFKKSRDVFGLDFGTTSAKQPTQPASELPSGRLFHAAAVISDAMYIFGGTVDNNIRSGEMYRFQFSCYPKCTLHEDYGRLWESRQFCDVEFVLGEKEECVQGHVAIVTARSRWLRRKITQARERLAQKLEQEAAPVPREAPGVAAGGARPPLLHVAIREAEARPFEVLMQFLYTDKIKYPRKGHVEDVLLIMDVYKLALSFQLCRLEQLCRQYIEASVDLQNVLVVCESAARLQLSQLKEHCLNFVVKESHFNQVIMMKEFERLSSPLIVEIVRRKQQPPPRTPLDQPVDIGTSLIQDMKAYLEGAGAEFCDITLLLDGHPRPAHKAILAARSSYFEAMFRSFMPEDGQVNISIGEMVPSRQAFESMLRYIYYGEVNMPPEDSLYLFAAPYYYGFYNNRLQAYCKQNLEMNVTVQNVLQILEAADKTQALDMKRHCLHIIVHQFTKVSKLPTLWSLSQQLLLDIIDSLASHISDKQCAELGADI
Assay: IP/MS, LZTR1 R810W-FLAG, U87
Procedure, shortened: (§1)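 Read-out: spectral counts from LC-MS/MS (Orbitrap Fusion) after MaxQuant identification. Variable modifications were Met oxidation, protein N-terminal acetylation and N/Q deamidation.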

Row | Binder | binding result
1 | B1 | binds
2 | B2 | binds
3 | B3 | binds
4 | B4 | binds
5 | B5 | binds
6 | B6 | binds

Molecular target: T2, LZTR1-FLAG (human, UniProt Q8N653 1-840)
T2 construct: Expressed in HEK 293T, HeLa or U87 cells; used as cell lysate; also called LZTR1 wild type-FLAG; LZTR1 WT; not shown: FLAG tag at the C-terminus
T2 sequence (looked up): T1 sequence (looked up) with W810R
Assay: IP/MS, LZTR1 wild type-FLAG, U87
Procedure, shortened: as §1

Row | Binder | binding result
7 | B1 | binds
8 | B2 | binds
9 | B3 | binds
10 | B4 | binds
11 | B5 | binds
12 | B6 | binds
